Measurements from US12077763B2, “RNA-based control of powdery mildew” (Greenlight Biosciences, Inc., priority 2021, dated 2024).

Tested on: E. necator
Assay: Leaf disc assay, dry inoculum (settling tower), decrease in disease severity / hyphal growth (Example 2)
Settings: decrease in disease severity (hyphal growth) relative to untreated control, value ± SE; for % decrease =/− SE TP1: time point 1 (untreated control hyphal growth ≥50%); for % decrease =/− SE TP2: time point 2

| Molecule | % decrease =/− SE TP1 [%] | % decrease =/− SE TP2 [%] |
| --- | --- | --- |
| GS1892: dsRNA trigger SEQ ID NO 148; gene target COP9 signalosome complex subunit 5 (nucleic acid) CGAGCTCTTATAGTGTGAGATCTGCAGCGAGTAGTATCTACTACTATGGGCACCGAAATCTTCGATCTTAGATAGTGGTATCGTTTGATAACCATCGTTAGTTGACGATTCTGCCGCCTTGTAGTTTTCTGGATAGGTCCGGAATGCACCTATTTCAACCTTACCAGCTGAGATGGTGCGATCTGGGTCAATGACAACCGCAAGAAAAGGATCCGAGAATGATTGCTGTATATGCTGTGTGCTAACATCTATGCCACTGAGCCAGCAGCCATAGCCTGGATGACTGTGGTACCACCCCACTGCATTCTCTAACTTTCCTTGCTCTCGACATGCCTGGAGATAACGAACCATATATTCATTTGCCTCATCTTGGGCATTAACACGTGTCTCCGTGCCTTC | 8 ± 5 | 3 ± 6 |
| GS1893: dsRNA trigger SEQ ID NO 124; gene target C2H2 zinc finger domain (nucleic acid) CACAACCTTGGGTCTGTCCTTAATTTTTCCACCAAATAATCAATCCTACGACCATTGCGTGGGACAATAATTCAATAAGGAAAATTTAAATAAAAAAAAATTTAAAAAAAAAGAAAAAGAAAAAATTTAATTAAAATCCATAATAAATACTCTGTTAATATTTACAAGGGAATCTTAATTATTCAACCAACCAATTATCTCGGAAAAGGATAAAGGAGTTGGTTTACATCTAACGATTAGAAAGCCTTTGAACCTAGTATGCCCAATTCTCTTCATATGGATACCCAGTTTCACTCAAACAATATGAATAGCAGTACAGCGAATTATAGTTCATTGCCTAGCATTTCGCCTCATCAACTGCAGCAGCAAAATCAAATGCCGACTCATATTCT | 5 ± 5 | – |
| GS2382 (nucleic acid) sense: AAAAGUUAUGGCGGAAAUCACUAUAUAUACUGCUUCACAUGCCUUACAAGGAGAAGAGGUCCGUGAGAAUUUUGACUCAUCUUUUGCCGCUCUUUAUCAUGAUCUUGAUAUGGGAUUUACACCGAUCAACUUUACAUUUUACUGGGCACCUCUACCUUGGAAUCGUGCUCGUGAUCAUGCCCAAAGAACUGUUGCUAGGA antisense: UCCUAGCAACAGUUCUUUGGGCAUGAUCACGAGCACGAUUCCAAGGUAGAGGUGCCCAGUAAAAUGUAAAGUUGAUCGGUGUAAAUCCCAUAUCAAGAUCAUGAUAAAGAGCGGCAAAAGAUGAGUCAAAAUUCUCACGGACCUCUUCUCCUUGUAAGGCAUGUGAAGCAGUAUAUAUAGUGAUUUCCGCCAUAACUUUU | 17 ± 0 | 4 ± 0 |
| GS1894: dsRNA trigger SEQ ID NO 123; gene target eka-like_protein (nucleic acid) AAAGGTAGTGGCTCTGGGTCTGGAAAAGGGAAAAATGTAGAAAAGAATGTTGCTGTTGCAACCCCTAAATTACCAAAACCTCCCCAAACCTCACTGAACACATGGGTTACTGTGGCTCGAAATGGTCAGAAGAAGGCCCGAGTTCTTCAAAATAATAATATACACACCACCCCGATGAGTAAAATAAGACCACGAGTATCAATTGTGGAGAGAGCCTCAGCTGCTCCGACAGATAATAGGCTGTTTCTCCGTCTCCCCCAAGAACATGAATGGCGAAAGCTTTCTCCTGCTGAAATACGTAAGGTAATTTTAAAGAAACTTTCAATCTCACCCGTATTGGTTGGGAATACGTGAGGTAATTGTACATTGGTTGGGAAAATTAA | 4 ± 6 | 0 ± 6 |
| GS2655 (nucleic acid) sense: UGCCAUUCGCGUAUUUUUCUAUUCGAAGACACUCAGUCCUUCAGAGAUUAUUCCAGAAUUGUAUCCUCAAUUACAAUCUUAUUUUUACACAAUACCUCUUUCCCCUAAAUAAAGUACUACAAUGUCAAAUUCCGAAUUAGCAGUUUCGUAUGCUGCCCUUAUCCUCGCAGAUGACGGGGUUGACGUCACAGCAGAUAAGCUACAAUCAUUAAUCAAGGCUGCUGGUAUUGAUGAUGUUGAGCCAAUUUGGACUACUUUAUUUGCCAAGGCUCUCGAUGGCAAAGAUGUGAAAGAUAUGCUCCUGAAUGUAG antisense: CUACAUUCAGGAGCAUAUCUUUCACAUCUUUGCCAUCGAGAGCCUUGGCAAAUAAAGUAGUCCAAAUUGGCUCAACAUCAUCAAUACCAGCAGCCUUGAUUAAUGAUUGUAGCUUAUCUGCUGUGACGUCAACCCCGUCAUCUGCGAGGAUAAGGGCAGCAUACGAAACUGCUAAUUCGGAAUUUGACAUUGUAGUACUUUAUUUAGGGGAAAGAGGUAUUGUGUAAAAAUAAGAUUGUAAUUGAGGAUACAAUUCUGGAAUAAUCUCUGAAGGACUGAGUGUCUUCGAAUAGAAAAAUACGCGAAUGGCA | 26 ± 9 | 9 ± 9 |
| ES46: dsRNA trigger SEQ ID NO 110; gene target Hypotethical effector (nucleic acid) DNA: TTGGAAGAACCGCCAGAAAACCCAATCAGATACCGATCTCTACTCGGATCATCATTTCACTTCGCAACATGCAATTAACGGTTATGTACCTTCTATAGGCTTTGAATCCGATGGTTATGGGATTAGTAAGAGATCTAATCGTAAAACTGTTCATGGATATTACTGTGGGAGCTCAAAACATGAGCAGCATTTTTATGAGCAGGACTATATTAAAATATATACATGTCAAACATAATGCAAACTTAATTCCATATAGTTAACTGAAATGGTCATTTTTTCACAGCTTTAACTCAATTCCTTTTGAAGAGTGATAACTTTTACTTGCAATTCCTAATTAAAATAAGAGCACAAGCCTTAATTTTTGGATCTAAAATATCAATGCCAACCCCTTGTGCACTGTTGGTAGTGAAAATCTTCGTTATTTGTGACAACATCCACAATCTCGCACTGCGTATTGATA | 6 ± 0 | 5 ± 0 |
| GS1895: dsRNA trigger SEQ ID NO 125; gene target eka-like_protein (nucleic acid) ACGCGCGGCTAATGATATGCACAATGCACGGTGATTAGTAGCATAGATAGTACATTAGCGACTTTTACAAAAGAAGTAGAGATAGAAGAGGCTGTAGCTTTCAAAGCGTACCTCAAACTTGCAATAGCAAACTTTGCAGCAGTAGATTCGTCCCCTCCTCCACCTCGTGTCCCATTACATACAAGACCGAATAAAGGTAACGGAAATGATAGCAGTAAAGGGAAAAGTAAAGAGAAAAACTTGTCAAAGATAGCAGTCGCAATACCTCGTATTGCTTGTAATCGAATTATCATGGGCCACAGTAATCAAAATCCAAATCTGGGTACGATCAAAGAAATAGAATTACCAAAAATTATTAAAAATATGATATA | – | 4 ± 7 |
| GS2384 (nucleic acid) sense: AUGGGAUUUACACCGAUCAACUUUACAUUUUACUGGGCACCUCUACCUUGGAAUCGUGCUCGUGAUCAUGCCCAAAGAACUGUUGCUAGGACUUAUAUGAAUAUAAUCCAAGCUCGUAGAGAAGAGAAAAGAAGCGGUGAGAAUAAGCAUGAUAUAAUGUGGGAGUUGAUGCGUUCCACUUAUAAAGACGGGACUCCGGU antisense: ACCGGAGUCCCGUCUUUAUAAGUGGAACGCAUCAACUCCCACAUUAUAUCAUGCUUAUUCUCACCGCUUCUUUUCUCUUCUCUACGAGCUUGGAUUAUAUUCAUAUAAGUCCUAGCAACAGUUCUUUGGGCAUGAUCACGAGCACGAUUCCAAGGUAGAGGUGCCCAGUAAAAUGUAAAGUUGAUCGGUGUAAAUCCCAU | 20 ± 0 | 8 ± 0 |
| GS1891: dsRNA trigger SEQ ID NO 122; gene target eka-like_protein (nucleic acid) CACCAACTGGGTGTCAGTACTAATACCAACAGTTCCAGCTGTTTTACATAAAGAACAAGGAGTAGTTGAAGTGAGCAACAGCATGCTTGCTGATGAGGTGGAACGTGTCTGCTCTGTGCGGCCAGCTCACATAAAGCTTTATGGAAGAAATAAACCTGAGGCACCGTATCGAACATGGATGGCTTTCTTCCCGAAAGCTCCACGCGGCACTTTTAAAGTGTTCGACGAATCTGGAATTGCGAGCGAGGTCTTTTAAAAAGCAGCAACCTCTCGAATTTTGTAAAAGATGCAATGGGCACCACTCTATTAAAAATTGCTCAAGGGCTCCTTCGTGCGGAAATTGTGGCTCGACCAATCATACCGAGGATTTATGTATGGCCGCAACTAAGTGTAGAAATTGTGG | 3 ± 7 | 4 ± 7 |
| GS1890: dsRNA trigger SEQ ID NO 154; gene target Pre-rRNA-processing protein FHL1 (nucleic acid) TAAAGGAATTGAAGGAGGAAAATTTGATGATGGATTGATAACAGACGGTACTTGCCCATTTATACGAGGTGGTAGCTGATAATTTGAAAAGTGACCTAATTGATTATGTGAAGATTCCATCGGGGCCCTGTACGTAAAGTGGCCTGCTATCTTTGAGAGACCATTTTGATAAGGAGTTTGTTGCAGACCTAGATAAGATTGAGGAGGCGGAGTAGCTCTCCTTTTTTTCTCTTTTTCAATAGATATACCGTCAACGATTCCCCAAGTCCAGCCTTTTCCATCCTTTTCAACTTTGCGGAAAGCATGGTGTTGTGATAGATTGTGACGAACACTACTTTGCCAGCCTAAGGTTTGAGTTTTAAATCTGAAATATGGGTATTTCCTGTATATAGCTCGGTAGATGT | 16 ± 5 | 4 ± 5 |
